Laboratory results: patent US20240002497A1 (Merck Sharp & Dohme, published 2024)

How the values were obtained:
[1] = target: T1, huNav1.7α + β1 (HEKa/β1) (human, UniProt Q15858 1-1988; Q07699 19-218); experiment: binding FACS, HEKa/β1 cells
T1 construct: also called HEKa/β1 huNav1.7α
Summary of the method: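 Cells at 1×10^5 per well incubated 30 min at 4 °C with purified FLAG3-tagged ISVD in FACS buffer (PBS, 10% FBS, NaN₃); bound ISVD detected via murine anti-Flag by flow cytometry, dead cells excluded with 1 μg/mL propidium iodide.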

[2] = target: T2, huNav1.7α (HEKa) (human, UniProt Q15858 1-1988); experiment: binding FACS, HEKa cells
T2 construct: also called HEKa huNav1.7α
Experimental: Binding of the ISVDs to cell-expressed Nav1.7α was detected via murine anti-Flag (Sigma, catalog #F1804). Briefly, cells were resuspended in FACS buffer (PBS, 10% FBS, NaN₃) and transferred to a 96-well V-bottom plate at 1×10^5 cells/well. Purified FLAG3-tagged ISVD was diluted in FACS buffer and added to the cells for 30 minutes at 4° C. […] Prior to the read-out, the samples were resuspended in 1 μg/mL propidium iodide (Sigma, catalog #P4170) to exclude dead cells. Between each step, the cells were centrifuged for 5 minutes at 200 grams and washed with 100 μL/well FACS buffer.

[3] = target: T3, huNav1.7α (human Nav1.7 alpha subunit, expressed without β subunits) (human, UniProt Q15858 1-1988); experiment: binding FACS, HEKa cells
T3 construct: also called HEK293 human Nav1.7α; HEKa Nav1.7α

[4] = target: T4, huNav1.7α + β1 (human Nav1.7α co-expressed with Navβ1) (human, UniProt Q15858 1-1988; Q07699 19-218); experiment: binding FACS, HEKa/β1 cells
T4 construct: also called HEK293 human Nav1.7α + β1; HEKa/β1 Nav1.7α

[5] = target: T5, huNav157 chimera 14 (human); experiment: binding FACS, HEK FlpIn cells
T5 construct: Chimera without β subunits; also called Nav157ch14

[6] = target: T6, huNav157 chimera 14 + β1-β2-β3 (human); experiment: binding FACS, HEK FlpIn cells
T6 construct: Chimera of huNav1.7α (extracellular loops and transmembrane helices) and huNav1.5α (intracellular loops); also called Nav157ch14-β1-β2-β3; huNav157 chimera 14-beta1-beta2-beta3

[7] = target: huNav1.7α + β1 (human); experiment: cell-based or functional assay
[8] = target: rhNav1.7α + β1-β2-β3 (rhesus monkey); experiment: cell-based or functional assay

Binder | EC50 [1] | EC50 [2] | Qpatch IC50 [7] | Qpatch IC50 [8] | further results
F010301657 (VHH) VHH: EVQLVESGGGLVQPGGSLRLSCAASVRPFSTSAMGWFRQAPEKEREAVAGILWNGIVTYYADSVKGRFTISRDNAKNEVYLQMNKLKPEDTAVYYCALDRAYQGRSFSAKEYEYWGQGTLVTVSS | 16 nM | 20 nM |  |  | 
F010301643 (VHH, also called F0103387G05(L11V, A14P, D23A, N82bS, N83R, V89L, R105Q)) VHH: EVQLVESGGGVVQPGGSLRLSCAASGRILRIGYMRWHRQGAGKQREFVARITDDSATDYADSVKGRFTISRDNAKNTVYLQMNSLRPEDTALYYCEALVTASVRGGSIHSGTYWGQGTLVTVSS |  |  |  |  | Bmax [3]: 100%; EC50 [3]: 4.1 nM; EC50 [4]: 3.4 nM; Bmax [5]: 100%; EC50 [5]: 3.7 nM; EC50 [6]: 3.6 nM
F010301645 (VHH, also called F0103387G05(L11V, A14P, G40A, N82bS, N83R, V89L, R105Q)) VHH: EVQLVESGGGVVQPGGSLRLSCDASGRILRIGYMRWHRQAAGKQREFVARITDDSATDYADSVKGRFTISRDNAKNTVYLQMNSLRPEDTALYYCEALVTASVRGGSIHSGTYWGQGTLVTVSS |  |  |  |  | Bmax [3]: 100%; EC50 [3]: 4.7 nM; EC50 [4]: 4.2 nM; Bmax [5]: 100%; EC50 [5]: 3.9 nM; EC50 [6]: 4.6 nM
F010301646 (VHH, also called F0103387G05(L11V, A14P, A41P, N82bS, N83R, V89L, R105Q)) VHH: EVQLVESGGGVVQPGGSLRLSCDASGRILRIGYMRWHRQGPGKQREFVARITDDSATDYADSVKGRFTISRDNAKNTVYLQMNSLRPEDTALYYCEALVTASVRGGSIHSGTYWGQGTLVTVSS |  |  |  |  | Bmax [3]: 100%; EC50 [3]: 4.4 nM; EC50 [4]: 4.1 nM; Bmax [5]: 100%; EC50 [5]: 3.1 nM; EC50 [6]: 4.2 nM
F010301649 (VHH, also called F0103387G05(L11V, A14P, N82bS, N83R, V89L, R105Q)) VHH: EVQLVESGGGVVQPGGSLRLSCDASGRILRIGYMRWHRQGAGKQREFVARITDDSATDYADSVKGRFTISRDNAKNTVYLQMNSLRPEDTALYYCEALVTASVRGGSIHSGTYWGQGTLVTVSS |  |  |  |  | Bmax [3]: 100%; EC50 [3]: 5.3 nM; EC50 [4]: 4.1 nM; Bmax [5]: 100%; EC50 [5]: 3.4 nM; EC50 [6]: 4.2 nM
F010301644 (VHH, also called F0103387G05(L11V, A14P, H37Y, N82bS, N83R, V89L, R105Q)) VHH: EVQLVESGGGVVQPGGSLRLSCDASGRILRIGYMRWYRQGAGKQREFVARITDDSATDYADSVKGRFTISRDNAKNTVYLQMNSLRPEDTALYYCEALVTASVRGGSIHSGTYWGQGTLVTVSS |  |  |  |  | Bmax [3]: 100%; EC50 [3]: 5.7 nM; EC50 [4]: 5 nM; Bmax [5]: 100%; EC50 [5]: 4.4 nM; EC50 [6]: 4.9 nM
F010300880 (VHH) VHH: EVQLVESGGGLVQPGGSLRLSCAASGPVFNINRMAWYRRAPGKQRELVASSTPGGDTNYADSVKGRFTISRDNAKRVYLQMNSLTPEDTAVYYCRWLLQPSIYDISRTYWGQGTLVTVSS |  |  | 27 nM | 122 nM | 
F010300900 (VHH) VHH: EVQLVESGGGLVQPGGSLRLSCAASGPVFNINRMAWYRRAPGKQRELVASSTPGGDTNYADSVKGRFTISRDNAKRVYLQMNSLTPEDTAVYYCRWLLQPSIYDISRIYWGQGTLVTVSS |  |  | 196 nM | 36 nM | 
F010300990 (VHH) VHH: EVQLVESGGGLVQPGGSLRLSCAASGPVFNINRMAWYRRAPGKQRELVAYSTPGGSTNYADSVKGRFTISRDNAKRVYLQMNSLTPEDTAVYYCNALLQPSIYDISRIYWGQGTLVTVSS |  |  | 249 nM | 101 nM | 
F010300948 (VHH) VHH: EVQLVESGGGLVQPGGSLRLSCAASGPVFNINRMAWYRRAPGKQRELVASSTPGGSTNYADSVKGRFTISRDNAKRVYLQMNSLTPEDTAVYYCRWLLQPSIYDISRIYWGQGTLVTVSS |  |  | 315 nM | 58 nM | 
F010300477 (VHH) VHH: EVQLVESGGGLVQPGGSLRLSCAASGSIFNINSMAWYRRAPGKQRELVASSTNGGSTNYADSVKGRFTISRDNAKRVYLQMNSLTPEDTAVYYCNWLLQPSIYDISRTYWGQGTLVTVSS |  |  | 96 nM | 1190 nM | 
F010300684 (VHH) VHH: EVQLVESGGGLVQPGGSLRLSCAASGPVFNWNSMAWYRRAPGKQRELVASSTPGGSTNYADSVKGRFTISRDNAKRVYLQMNSLTPEDTAVYYCRALLQPSIYDISRIYWGQGTLVTVSS |  |  | 202 nM | 212 nM | 
F010300631 (VHH) VHH: EVQLVESGGGLVQPGGSLRLSCAASGPVFNINSMAWYRRAPGKQRELVAYSTPGGSTNYADSVKGRFTISRDNAKRVYLQMNSLTPEDTAVYYCRALLQPSIYDISRTYWGQGTLVTVSS |  |  | 73 nM | 173 nM | 

Second part, led by results:

EC50 [1] | EC50 [2] | Qpatch IC50 [7] | Qpatch IC50 [8] | Binder | further results
11 nM | 8.8 nM |  |  | F010301665 (VHH) VHH: EVQLVESGGGLVQPGGSLRLSCAASVRPFSTSAMGWFRQAPEKEREAVAAILWNGIVTYYADSVKGRFTISRDNAKNEVYLQMNKLKPEDTAVYYCALDRAYGGRSFSAKEYEYWGQGTLVTVAA | 
17 nM | 19 nM |  |  | F010301662 (VHH) VHH: EVQLVESGGGLVQPGGSLRLSCAASVRPFSTSAMGWFRQAPEKEREAVAGILWNGIVTYYADSVKGRFTISRDNAKNEVYLQMNKLKPEDTAVYYCALDRAYQGRSFSAYEYEYWGQGTLVTVSS | 
18 nM | 13 nM |  |  | F010301664 (VHH) VHH: EVQLVESGGGLVQPGGSLRLSCAASVRPFSTSAMGWFRQAPEKEREAVAGILWNGIVTYYADSVKGRFTISRDNAKNEVYLQMNKLKPEDTAVYYCALDRDYQGRSFSAKEYEYWGQGTLVTVSS | 
20 nM | 23 nM |  |  | F010301658 (VHH) VHH: EVQLVESGGGLVQPGGSLRLSCAASVRPFSTSAMGWFRQAPEKEREAVAAILWNGIVTYYADSVKGRFTISRDNAKNEVYLQMNKLKPEDTAVYYCALDRAYQGRSFSAKEYEYWGQGTLVTVSS | 
18 nM | 16 nM |  |  | F010301661 (VHH) VHH: EVQLVESGGGLVQPGGSLRLSCAASVRPFSTSAMGWFRQAPEKEREAVAAILWNGIVTYYADSVKGRFTISRDNAKNEVYLQMNKLKPEDTAVYYCALDRDYGGRSFSAKEYEYWGQGTLVTVSS | 
14 nM | 13 nM |  |  | F010301663 (VHH) VHH: EVQLVESGGGLVQPGGSLRLSCAASVRPFSTSAMGWFRQAPEKEREAVAGILWNGIVTYYADSVKGRFTISRDNAKNEVYLQMNKLKPEDTAVYYCALDRAYGGRSFSAKEYEYWGQGTLVTVSS | 
12 nM | 11 nM |  |  | F010301659 (VHH) VHH: EVQLVESGGGLVQPGGSLRLSCAASVRPFSTSAMGWFRQAPEKEREAVAAILWNGIVTYYADSVKGRFTISRDNAKNEVYLQMNKLKPEDTAVYYCALDRAYGGRSFSAYEYEYWGQGTLVTVSS | 
14 nM | 10 nM |  |  | F010301666 (VHH) VHH: EVQLVESGGGLVQPGGSLRLSCAASVRPFSTSAMGWFRQAPEKEREAVAAILWNGIVTYYADSVKGRFTISRDNAKNEVYLQMNKLKPEDTAVYYCALDRDYQGRSFSAKEYEYWGQGTLVTVSS | 
 |  | 22 nM | 3 nM | F010302383 (VHH) VHH: EVQLVESGGGVVQPGGSLRLSCAASGPVFNINRMAWYRQAPGKQRELVAYVTPTGDISYADSVKGRFTISRGGSKRVYLQMNSLRPEDTALYYCRALLQPSSYSGTRTYWGQGTLVTVSS | 
